The nanobody polyreactivity screen of Harvey et al. (2022)

Assay: yeast display, Sf9 membrane polyspecificity reagent, FACS + sequencing; frameworks hold sequencing errors
Procedure, shortened: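 Using colony PCR, genes from sorted yeast display clones were amplified, then sequenced on MiSeq at 2 × 250 and filtered by CDR length. The clones had been stained with 10% biotinylated, detergent-solubilized Sf9 membrane reagent for 1 hour at 4 °C and sorted by FACS into low and high (top ~1%) gates on anti-HA and streptavidin fluorescence. Polyreactivity labels come from the gate of origin.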

| Sequence | polyreactivity (PSR sort gate) |
| --- | --- |
| QVQLVESGGGLVQAGGSLRLSCAASGRIFYWYAMGWYRQAPGKERELVATINSGGSTTYADSVKARFTISRDNAKNTVYLQMNSLKPEDTAVYYCARQRTVKKYYNWGQGTQVTVSS | high polyreactivity |
| QVQLVESGGGLVQAGGSLRLSCAASGRIFYWYVMGWYRQAPGKERELVASISWSGGSTYYADSVKGRFTISRDNAKNTVYLQMNSLKPEDTAVYYCNAGSVYTVSLPGHPYDYWGQGTQVTVSS | low polyreactivity |
| QVQLVESGGGLVQAGGSLRLSCAASGRIFYWYVMGWYRQAPGKERELVATIRYSGGNTYYADSVKGRFTISRDNAKNTVYLQMNSLKPEETEVYYCAAGSLYWGRSPTRGGQGGYWGQGTQVTVSS | high polyreactivity |
| QVQLVESGGGLVQAGGSLRLSCAASGRIFYYNAMGWYREAPGKERELVAVITRSGGRTFYADSVKGRFTISRDNAKNTVYLQMNSLKPEDTAVYYCAARYRYYPVTTRGYYWGQGTQVTVSS | high polyreactivity |
| QVQLVESGGGLVQAGGSLRLSCAASGRIFYYNAMGWYRPAPGKERELVAAITGDGTTDYADSVKGRFTISRDNAKNTVYLQMNSLKPEDTAVYYCNAPFRYVPPEGSGPYDYWGQGTQVTVSS | low polyreactivity |
| QVQLVESGGGLVQAGGSLRLSCAASGRIFYYNAMGWYRQAHGKERELVAAISFSDGSTYYADSVKGRFTISRDNAKNTVYLQMNSLKPEDTAVYYCAADIGYDYDYWGQGTQVTVSS | low polyreactivity |
| QVQLVESGGGLVQAGGSLRLSCAASGRIFYYNAMGWYRQAPGKERELVAAISGSGGRTYYADSVKGRFTISRDNAKNTVYLQMNSLKPEDTAVYYCAAAGYDSNGRYWGQGTQVTVSS | high polyreactivity |
| QVQLVESGGGLVQAGGSLRLSCAASGRIFYYNAMGWYRQAPGKERELVAAITSGGSTNYADSVKGRFTISPDNAKNTVYLQMNSLKPEDTAVYYCNARRYGSPRSEVHYDYCGQGTQVTVSS | low polyreactivity |
| QVQLVESGGGLVQAGGSLRLSCAASGRIFYYNAMGWYRQAPGKERELVAAITSVGSTNYADSVKGSFTISRDNAKNTVYLQMNSLKPEDTAVYYCARASAWYVTLVGKYTKYDYWGQGTQVTVSS | low polyreactivity |
| QVQLVESGGGLVQAGGSLRLSCAASGRIFYYNTMGWYRQAPGKERELVAAITRSGGSTYYADSVKGRFTISRDNAKNTVYLQMNSLKPEDTAVYYCAARSTHPGSVGYWGQGTQVTVSS | high polyreactivity |
| QVQLVESGGGLVQAGGSLRLSCAASGRIFYYNTMGWYRQAPGKESELVAAISWSGGSTFYADSVKGRFTISRDNAKNTVYLQMNSLKPEDTAVYYCARYKLRSGRSGDHDDYWGQGTQVTVSS | high polyreactivity |
| QVQLVESGGGLVQAGGSLRLSCAASGRIFYYYAMGWYRQAPGKERELVAAISWSGGSTYYADSVKGRFTISRDNAKNTVYLQMNSLKPEDTAVYYCAAESRKYREYYFWGQGTQVTVSS | high polyreactivity |
| QVQLVESGGGLVQAGGSLRLSCAASGRIFYYYAMGWYRQAPGKERELVAAITRRGGSTYYADSVKGRFTISRDNAKNTVYLQMNSLKPEDTAVYYCAKPDRTGWLDGDYWGQGTQVTVSS | low polyreactivity |
| QVQLVESGGGLVQAGGSLRLSCAASGRIFYYYAMRWYRQAPGKERELVATISGIGGSTYYADSVKGRFTISRDNAKNTVYLHMNSLKPEDTAVYYCNADYPTSYPLLKSGFDYWGQGTQVTVSS | low polyreactivity |
| QVQLVESGGGLVQAGGSLRLSCAASGRIFYYYDMGWYRQAPGKERELVATMSGIGGSTYYADSVKGLFTISRDHAKNTVYLQMNSLKPEDTAVYYCNADYPTSYPLFKTGFDYWGQGTQVTVSS | low polyreactivity |
| QVQLVESGGGLVQAGGSLRLSCAASGRIFYYYTMGWYRQAPGKERELVAALTRSGSSTYADSVKGRFTISRDNAKNTVYLQMNSLKAEVTAVYYCAADYIRRYDYWGQGTQVTVSS | low polyreactivity |
| QVQLVESGGGLVQAGGSLRLSCAASGRIGYNVMGWYRPAPGKERELVADISRGGGRTYYADSVKGRFTISRDNAKNTVYLQMNSLKPEDTAVYYCNAVTYYVDGGWYDYDYWGQGTQVTVSS | high polyreactivity |
